Data as given in US20200270351A1 (Janssen / Centocor, published 2020).

Molecular target: T1, mutant L858R/T790M EGFR on NCI-H1975 cells (human, UniProt P00533 25-1210)
T1 construct: whole, on cells; these cells carry both this EGFR and wild type c-Met; also called H1975 target cells; HER1
Assay: confocal imaging of AF647-labeled antibody in co-culture of M1 or M2c macrophages and H1975 target cells (data not shown)
Method: Differentiated macrophages were harvested and plated onto CellCarrier96 ultra plates at 1,00,000 cells/well (Perkin-Elmer; Cat#6055302) overnight. Assays were performed using both adhered and non-adhered target cells. For assays with adhered target cells, the H1975 NucLight Red cells were plated at 20,000/well, adhered for 4 hours, then treated with labeled Ab cocktail for 1 hour at 4° C.

Row | Binder | binding result
1 | JNJ-61186372 (JNJ-372), IgG1 anti-EGFR/c-Met bispecific antibody (bispecific antibody, Produced in a cell line incorporating low levels (<9%) of fucose) heavy 1: not shown light 1: not shown heavy 2: not shown light 2: DIQMTQSPSSVSASVGDRVTITCRASQGISNWLAWFQHKPGKAPKLLIYAASSLLSGVPSRFSGSGSGTDFTLTISSLQPEDFATYYCQQANSFPITFGQGTRLEIKRTVAAPSVFIFPPSDEQLKSGTASVVCLLNNFYPREAKVQWKVDNALQSGNSQESVTEQDSKDSTYSLSSTLTLSKADYEKHKVYACEVTHQGLSSPVTKSFNRGEC | binds
2 | JNJ-372.IgG2sigma (Fc effector silent JNJ-372) (bispecific antibody, V domains shown, Used AF488- or AF647-labeled in the assays; also called IgG2σ; EGFR/cMet IgG2G Ab) VH 1: QVQLVESGGGVVQPGRSLRLSCAASGFTFSTYGMHWVRQAPGKGLEWVAVIWDDGSYKYYGDSVKGRFTISRDNSKNTLYLQMNSLRAEDTAVYYCARDGITMVRGVMKDYFDYWGQGTLVTVSS VL 1: AIQLTQSPSSLSASVGDRVTITCRASQDISSALVWYQQKPGKAPKLLIYDASSLESGVPSRFSGSESGTDFTLTISSLQPEDFATYYCQQFNSYPLTFGGGTKVEIK VH 2: QVQLVQSGAEVKKPGASVKVSCETSGYTFTSYGISWVRQAPGHGLEWMGWISAYNGYTNYAQKLQGRVTMTTDTSTSTAYMELRSLRSDDTAVYYCARDLRGTNYFDYWGQGTLVTVSS VL 2: DIQMTQSPSSVSASVGDRVTITCRASQGISNWLAWFQHKPGKAPKLLIYAASSLLSGVPSRFSGSGSGTDFTLTISSLQPEDFATYYCQQANSFPITFGQGTRLEIK | binds
